Measured values from paper PMC8654964, “Centrosome dysfunction associated with somatic expression of the synaptonemal complex protein TEX12” (Communications Biology, 2021).

Molecular target: the molecule itself
Experiment: SEC-MALS; Superdex 200 Increase 10/300 GL, 20 mM Tris pH 8.0, 150 mM KCl, 2 mM DTT, 0.5 ml/min; TEX12 loaded at 12 mg/ml, TEX12core at 4 mg/ml; self-association (homodimer)

B1: TEX12core (human TEX12 amino acids 49-123) (domain or fragment, UniProt Q9BXU0 49-123, looked up)
chain: KDEALEKDLNDVSKEINLMLSTYAKLLSERAAVDASYIDEIDELFKEANAIENFLIQKREFLRQRFTVIANTLHR
notes: Human TEX12, alpha-helical structural core, amino acids 49-123; Cloned into pMAT11 as a His6-MBP fusion with a TEV site; also called structural core (49-123); source: E. coli BL21(DE3), purified (Ni-NTA, amylose, TEV cleavage, anion exchange); not shown: His6, N-terminal, cleaved; MBP, N-terminal, cleaved
**Q.** How did the “stoichiometry N” value turn out when B1 was run?
**A.** 2

B2: TEX12 (human, full length, amino acids 1-123) (natural protein, UniProt Q9BXU0 1-123, looked up)
chain: MMANHLVKPDNRNCKRPRELESPVPDSPQLSSLGKSDSSFSEISGLFYKDEALEKDLNDVSKEINLMLSTYAKLLSERAAVDASYIDEIDELFKEANAIENFLIQKREFLRQRFTVIANTLHR
notes: Human TEX12, synaptonemal complex central element protein, amino acids 1-123 (full length); Cloned into pMAT11 as a His6-MBP fusion with a TEV site; also called recombinant human TEX12; source: E. coli BL21(DE3), purified (Ni-NTA, amylose, TEV cleavage, anion exchange); not shown: His6, N-terminal, cleaved; MBP, N-terminal, cleaved
**Q.** Which “stoichiometry N” value does the source give for B2 here?
**A.** 2
